Results as given in US20230303698A1 (HARBOUR BIOMED SHANGHAI, published 2023).

T1: human OX40 (human, UniProt P43489 29-277)
T1 construct: whole, on cells; Expressed on CHO-K1/hu OX40 cells (GenScript, #M00561); also called CD134; TNFRSF4
T1 sequence (looked up): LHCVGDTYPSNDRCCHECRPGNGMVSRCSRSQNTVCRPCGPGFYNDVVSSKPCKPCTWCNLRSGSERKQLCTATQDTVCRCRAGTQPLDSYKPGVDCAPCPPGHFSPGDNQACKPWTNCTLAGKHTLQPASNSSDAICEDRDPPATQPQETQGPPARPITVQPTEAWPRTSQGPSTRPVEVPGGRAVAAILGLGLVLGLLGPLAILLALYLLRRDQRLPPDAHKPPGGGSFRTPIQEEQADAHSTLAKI


Tests used:
[1] = molecular target: T1, human OX40; assay: flow cytometry, CHO-K1/hu OX40 cells
Procedure: The antibody binding assay at the cellular level was performed using a CHO-K1 cell line CHO-K1/hu OX40 (GenScript, #M00561) highly expressing human OX40. Briefly, the CHO-K1/hu OX40 cells were digested and resuspended in an F12K complete medium, and the cell density was adjusted to 1×10⁶ cells/mL. […] The cells were incubated at 4° C. for 1 h away from light. Thereafter, the cells in each well were rinsed twice with 100 μL of pre-cooled PBS, and centrifuged at 500 g at 4° C. for 5 min, and then the supernatant was discarded. […] The plate was incubated away from light at 4° C. for 30 min. The cells in each well were rinsed twice with 100 L of pre-cooled PBS, and centrifuged at 500 g at 4° C. for 5 min, and then the supernatant was discarded. Finally, a pre-cooled PBS was added at 200 μL/well to resuspend the cells. Fluorescence signal values were read using a BD FACS CANTOII flow cytometer or an ACEA NovoCyte flow cytometer, and the data were processed and analyzed using FlowJo v10 (FlowJo, LLC) software.

[2] = molecular target: T2, human PD-L1 (human, UniProt Q9NZQ7 19-290); assay: flow cytometry, CHO-K1/hPD-L1 cells
T2 construct: whole, on cells; Expressed on CHO-K1/hPD-L1 cells (GenScript, M00543); also called CD274; B7-H1
T2 sequence (Q9NZQ7 19-290): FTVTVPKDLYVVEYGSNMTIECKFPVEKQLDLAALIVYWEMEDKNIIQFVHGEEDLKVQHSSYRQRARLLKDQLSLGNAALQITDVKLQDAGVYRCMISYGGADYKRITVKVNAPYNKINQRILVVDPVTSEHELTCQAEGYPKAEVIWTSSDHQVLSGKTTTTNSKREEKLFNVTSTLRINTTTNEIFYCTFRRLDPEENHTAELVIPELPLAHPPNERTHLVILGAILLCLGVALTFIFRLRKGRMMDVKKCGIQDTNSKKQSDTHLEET

[3] = molecular target: T3, human PSMA (human, UniProt Q04609 1-750); assay: flow cytometry, LNCaP cells highly expressing human PSMA
T3 construct: whole, on cells; On LNCaP cells highly expressing human PSMA (Nanjing Cobioer, CBP60364); also called FOLH1; glutamate carboxypeptidase 2
T3 sequence (Q04609 whole entry): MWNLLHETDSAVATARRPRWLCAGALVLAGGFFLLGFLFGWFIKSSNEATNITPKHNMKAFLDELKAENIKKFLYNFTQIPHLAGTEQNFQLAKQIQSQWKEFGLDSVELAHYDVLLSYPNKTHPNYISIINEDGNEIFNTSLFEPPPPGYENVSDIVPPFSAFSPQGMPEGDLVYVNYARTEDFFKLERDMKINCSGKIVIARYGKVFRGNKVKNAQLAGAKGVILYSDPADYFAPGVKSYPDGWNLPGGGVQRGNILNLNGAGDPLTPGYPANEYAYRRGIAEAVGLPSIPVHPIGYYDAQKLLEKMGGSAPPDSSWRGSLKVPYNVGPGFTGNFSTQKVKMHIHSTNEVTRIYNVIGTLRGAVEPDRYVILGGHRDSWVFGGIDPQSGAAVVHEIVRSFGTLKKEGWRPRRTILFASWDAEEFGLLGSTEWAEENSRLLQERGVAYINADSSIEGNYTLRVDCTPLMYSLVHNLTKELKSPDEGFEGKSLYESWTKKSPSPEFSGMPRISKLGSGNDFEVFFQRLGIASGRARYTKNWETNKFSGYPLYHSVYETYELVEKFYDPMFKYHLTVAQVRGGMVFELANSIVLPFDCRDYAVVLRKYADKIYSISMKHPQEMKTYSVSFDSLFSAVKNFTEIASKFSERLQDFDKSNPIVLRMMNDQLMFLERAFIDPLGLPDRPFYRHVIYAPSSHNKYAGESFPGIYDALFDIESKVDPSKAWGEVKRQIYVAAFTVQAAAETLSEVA

[4] = molecular target: T4, human 4-1BB (human, UniProt Q07011 24-255); assay: flow cytometry, CHO-K1/hu 4-1BB cells
T4 construct: whole, on cells; Expressed on CHO-K1/hu 4-1BB cells (GenScript, M00538); also called CD137; TNFRSF9
T4 sequence (Q07011 24-255): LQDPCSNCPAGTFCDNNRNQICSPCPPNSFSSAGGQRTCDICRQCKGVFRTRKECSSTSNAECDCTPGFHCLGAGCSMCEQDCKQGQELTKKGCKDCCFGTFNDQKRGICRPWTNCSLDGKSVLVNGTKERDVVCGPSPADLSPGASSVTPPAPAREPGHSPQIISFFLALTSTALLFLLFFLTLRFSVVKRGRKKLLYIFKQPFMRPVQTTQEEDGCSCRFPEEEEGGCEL
Procedure: The binding ability of the binding protein to a CHO-K1 cell line CHO-K1/hu 4-1BB (GenScript, M00538) highly expressing human 4-1BB and a CHO-K1 cell line CHO-K1/cyno 4-1BB (GenScript, M00569) highly expressing cynomolgus monkey 4-1BB were determined by flow cytometry FACS. Specifically, the cells were digested and resuspended in a complete medium, and the cell density was adjusted to 2×10⁶ cells/mL. […] The cells were incubated at 4° C. for 1 h away from light. Then, the cells in each well were rinsed twice with 100 μL of pre-cooled FACS buffer (PBS buffer containing 0.5% BSA) and centrifuged at 500 g at 4° C. for 5 min, and then the supernatant was discarded. […] Then, the cells in each well were then rinsed twice with 200 μL of pre-cooled FACS buffer and centrifuged at 500 g at 4° C. for 5 min, and then the supernatant was discarded. Finally, a pre-cooled FACS buffer was added at 200 μL/well to resuspend the cells. Fluorescence signal values were read using a BD FACS CANTOII flow cytometer or an ACEA NovoCyte flow cytometer, and the data were processed and analyzed using FlowJo v10 (FlowJo, LLC) software.

[5] = molecular target: T5, human CLDN18.2 (human); assay: flow cytometry, NUGC-4 cells highly expressing human CLDN18.2
T5 construct: On NUGC-4 cells highly expressing human CLDN18.2 (JCRB, JCRB0834); also called Claudin 18.2; NUGC-4 cells
Procedure: In this example, the binding ability of the binding proteins to cells highly expressing specific tumor antigens was determined by flow cytometry FACS. Briefly, a cell suspension was collected, and the cell density was adjusted to 2×10⁶ cells/mL. […] Then, binding proteins diluted in a 3-fold gradient at a total of 8 concentrations that were 2 times the final concentrations were added at 50 μL/well, and the mixture was mixed well. hIgG1 iso (CrownBio, #C0001) was used as an isotype control. The cells were incubated at 4° C. for 2 h away from light. Then, the cells in each well were then rinsed twice with 100 μL of pre-cooled PBS buffer and centrifuged at 500 g at 4° C. for 5 min, and then the supernatant was discarded. […] Then, the cells in each well were then rinsed twice with 100 μL of pre-cooled PBS buffer and centrifuged at 500 g at 4° C. for 5 min, and then the supernatant was discarded. Finally, a pre-cooled FACS buffer (PBS buffer containing 0.5% BSA) was added at 200 μL/well to resuspend the cells. Fluorescence signal values were read using an ACEA NovoCyte flow cytometer or a BD FACS CANTOII flow cytometer, and the data were processed and analyzed using FlowJo v10 (FlowJo, LLC) software.
In this example, the binding ability of the antibodies targeting CLDN18.2 to NUGC-4 cells highly expressing human CLDN18.2 (JCRB, JCRB0834) was determined.

Binder | binding result [1] | binding result [3] | binding result [4] | other results
PR003789 (bispecific antibody, human IgG1, kappa, L234A L235A, Structure 1, IgG-VH; PD-L1 Fab from PR000265, OX40 VH from PR002067; linker H1_15; human IgG1 (AAG); also called PD-L1×OX40 bispecific antibody molecule) light: DIQMTQSPSTLSASVGDRVTVTCRASQSIYIWLAWYQQKPGKAPNLLIYKASSLETGVPSRFSGSGSGTEFTLTISSLQPDDFATYYCQQYYGSSRTFGQGTKVEIKRTVAAPSVFIFPPSDEQLKSGTASVVCLLNNFYPREAKVQWKVDNALQSGNSQESVTEQDSKDSTYSLSSTLTLSKADYEKHKVYACEVTHQGLSSPVTKSFNRGEC heavy: EVQLVESGGGLVQPGGSLRLSCAASGFTFSSYWMSWVRQAPGKGLEWVANIKQEGSEKYYVDSVKGRFTISRDNAKNSLYLQMNSLRAEDTAVYYCARDRAVAGAFDIWGQGTMVTVSSASTKGPSVFPLAPSSKSTSGGTAALGCLVKDYFPEPVTVSWNSGALTSGVHTFPAVLQSSGLYSLSSVVTVPSSSLGTQTYICNVNHKPSNTKVDKKVEPKSCDKTHTCPPCPAPEAAGGPSVFLFPPKPKDTLMISRTPEVTCVVVDVSHEDPEVKFNWYVDGVEVHNAKTKPREEQYNSTYRVVSVLTVLHQDWLNGKEYKCKVSNKALGAPIEKTISKAKGQPREPQVYTLPPSREEMTKNQVSLTCLVKGFYPSDIAVEWESNGQPENNYKTTPPVLDSDGSFFLYSKLTVDKSRWQQGNVFSCSVMHEALHNHYTQKSLSLSPGAEPKSSDKTHTPPPPPEVQLLESGGGLVQPGGSLRLSCAASGFTFSSYAMSWVRQAPGKGLEWVSAISGRGGSTFYADSVRGRFTISRDNSKNTLYLQMNSLRAEDTAMYYCVDGTTGTTDVDYWGQGTLVTVSS | binds |  |  | binding result [2]: binds
PR003555 (bispecific antibody, human IgG1, kappa, L234A L235A, Structure 1, IgG-VH; PSMA Fab from PR001331, 4-1BB VH from PR001758; linker H1_15-RT; human IgG1 (AAG); also called PSMA×4-1BB bispecific antibody molecule) light: DIQMTQSPSSLSASIGDRVTITCRASQSINSYLNWYQQKPGKAPKLLIYTASSLLSGVPSRFSASGSWTDFSLTISSLQPEDFATYYCQQSFSTPYTFGQGTNLEIKRTVAAPSVFIFPPSDEQLKSGTASVVCLLNNFYPREAKVQWKVDNALQSGNSQESVTEQDSKDSTYSLSSTLTLSKADYEKHKVYACEVTHQGLSSPVTKSFNRGEC heavy: not shown |  | binds | binds | 
PR003556 (bispecific antibody, human IgG1, kappa, L234A L235A, Structure 1, IgG-VH; PSMA Fab from PR001331, 4-1BB VH from PR001760; linker H1_15-RT; human IgG1 (AAG); also called PSMA×4-1BB bispecific antibody molecule) light: DIQMTQSPSSLSASIGDRVTITCRASQSINSYLNWYQQKPGKAPKLLIYTASSLLSGVPSRFSASGSWTDFSLTISSLQPEDFATYYCQQSFSTPYTFGQGTNLEIKRTVAAPSVFIFPPSDEQLKSGTASVVCLLNNFYPREAKVQWKVDNALQSGNSQESVTEQDSKDSTYSLSSTLTLSKADYEKHKVYACEVTHQGLSSPVTKSFNRGEC heavy: not shown |  | binds | binds | 
PR004284 (bispecific antibody, human IgG1, kappa, L234A L235A, Structure 1, IgG-VH; PSMA Fab from PR001331, OX40 VH from PR002067; linker H1_15-RT; human IgG1 (LALA); also called PSMA×OX40 bispecific antibody molecule) light: DIQMTQSPSSLSASIGDRVTITCRASQSINSYLNWYQQKPGKAPKLLIYTASSLLSGVPSRFSASGSWTDFSLTISSLQPEDFATYYCQQSFSTPYTFGQGTNLEIKRTVAAPSVFIFPPSDEQLKSGTASVVCLLNNFYPREAKVQWKVDNALQSGNSQESVTEQDSKDSTYSLSSTLTLSKADYEKHKVYACEVTHQGLSSPVTKSFNRGEC heavy: not shown | binds | binds |  | 
PR003557 (bispecific antibody, human IgG1, kappa, L234A L235A, Structure 1, IgG-VH; PSMA Fab from PR001331, 4-1BB VH from PR001836; linker H1_15-RT; human IgG (AAG) as printed; also called PSMA×4-1BB bispecific antibody molecule) light: DIQMTQSPSSLSASIGDRVTITCRASQSINSYLNWYQQKPGKAPKLLIYTASSLLSGVPSRFSASGSWTDFSLTISSLQPEDFATYYCQQSFSTPYTFGQGTNLEIKRTVAAPSVFIFPPSDEQLKSGTASVVCLLNNFYPREAKVQWKVDNALQSGNSQESVTEQDSKDSTYSLSSTLTLSKADYEKHKVYACEVTHQGLSSPVTKSFNRGEC heavy: not shown |  | binds | binds | 
PR002067, anti-OX40 heavy-chain antibody R1026P079E12 (antibody, human IgG1, V domains shown, Fully human heavy-chain antibody (HCAb), heavy chain dimer without light chains; also called anti-OX40 HCAb antibody) VH: EVQLLESGGGLVQPGGSLRLSCAASGFTFSSYAMSWVRQAPGKGLEWVSAISGRGGSTFYADSVRGRFTISRDNSKNTLYLQMNSLRAEDTAMYYCVDGTTGTTDVDYWGQGTLVTVSS | binds |  |  | 
PR002726, anti-CLDN18.2 monoclonal antibody 13E6F4 hIgG1 (antibody, V domains shown, Parent monoclonal antibody of the CLDN18.2 end; hIgG1) VH: EVQLLESGGGLVQPGGSLRLSCAASGFTFSSFVMSWVRQAPGKGLEWVSTISGSGRSTYYADSVKGRFTISRDNSKNTLHLQMNSLRAEDTAVYYCAKDAAAAGTKFDYWGQGTLVTVSS VL: EIVLTQSPATLSLSPGERATLSCRASQSVSSYLAWYQQKPGQAPRLLIYDASNRATGIPARFSGSGSGTDFTLTISSLEPEDFAVYYCQQRSNWPLTFGGGTKVEIKR |  |  |  | binding result [5]: binds
